This is an account of results in PMC7953435 (Cell host & microbe, 2021).

The target of the assay is N-terminal domain of SARS-CoV-2 spike (NTD, residues 1–330) (SARS-CoV-2, UniProt P0DTC2). The experiment in a line: crystal structure.

B1: antibody 2–51 Fab (Fab, V domains shown)
VH: QVQLVQSGAEVKKPGASVKVSCKVSGYTLIELSMHWVRQAPGKGLEWMGGFDPEDVETIYAQQFQGRVTMTEDTSTDTAYMELSSLRSEDTAVYYCATGWAYKSTWYFGYWGQGTLVTVSS
VL: QSALTQPPSASGSPGQSVTISCTGTSSDVGGYNYVSWYQQHPGKAPKLMIYEVSKRPSGVPDRFSGSKSGNTASLTVSGLQAEDEADYYCSSYAGSRMGFGGGTKLTVL
For the molecule B1, the binding result is recorded as “binds”.
